{
  "source": "patent US20040167074A1",
  "about": "“Therapeutic applications of mFLINT polypeptides” (priority 1998, published 2004)",
  "molecules": {"B1": {"name": "mFLINT: mature FLINT without leader peptide (FIG. 3), soluble TNFR superfamily member, made according to Examples 8 and 9 (protein)", "chain": "VAETPTYPWRDAETGERLVCAQCPPGTFVQRPCRRDSPTTCGPCPPRHYTQFWNYLERCRYCNVLCGEREEEARACHATHNRACRCRTGFFAHAGFCLEHASCPPGAGVIAPGTPSQNTQCQPCPPGTFSASSSSSEQCQPHRNCTALGLALNVPGSSSHDTLCTSCTGFPLSTRVPGAEECERAVIDFVAFQDISIKRLQRLLQALEAPEGWGPTPRAGRAALQLKLRRRLTELLGAQDGALLVRLLQALRVARMPGLERSVRERFLPVH", "modifications": "glycosylated"}},
  "key": {"[1]": {"target": "T1, TNFα (Homo sapiens, UniProt P01375)", "T1 construct": "purchased", "T1 sequence (P01375 77-233 limits assumed, species assumed)": "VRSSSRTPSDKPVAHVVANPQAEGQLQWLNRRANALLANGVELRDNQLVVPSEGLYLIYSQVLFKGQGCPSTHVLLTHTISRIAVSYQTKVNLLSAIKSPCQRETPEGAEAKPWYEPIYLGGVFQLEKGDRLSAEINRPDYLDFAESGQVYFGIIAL", "experiment": "Dot blot binding of mFLINT to TNF ligands"}, "[2]": {"system": "Mouse T cell hybridoma cells (LTT cells)", "experiment": "Murine FasL-mediated apoptosis of LTT cells (Annexin V assay)", "assay_type": "cell-based", "settings": "test agent 1 μg/ml", "description": "LTT,2,14,11 cells (LTT cells), see Glasebrook, Eur.J.Immunol. 17: 1561-65 (1987), were used in this Annexin V assay. On the first day, a 96 well plate was coated with anti-CD3 (2C11) at a serial dilutions. On the second day, 100,000 LTT cells were added, in 50 μl of medium per well, along with 50 μl of medium to the control wells and 50 μl of medium containing:\nGroup 1. solubleFas (sFas)(FasFc, mouse), with a final concentration of 1 μg/ml\nGroup 2. mFLINT (human), with a final concentration of 1 ug/ml\nGroup 3. anti-FasL (mouse), with a final concentration of 1 ug/ml.\nThese then were incubated overnight, at 37° C., in 5% CO2;\nOn the following day (Day 3), the cells were collected from each well, washed and labeled with Annexin V and PI, following Flow cytometry analysis."}, "[3]": {"system": "intact hippocampal neurons along the dorsal CA1 regions", "experiment": "Gerbil cerebral ischemia (carotid occlusion), hippocampal CA1 neuron count", "assay_type": "in vivo", "settings": "5 min carotid occlusion; 5 ul bolus 0.63 mg/ml then 1 ul/h for 3 days intracerebral; day 5; p-0.0039 t-Test, p=0.0037 Wilcoxon", "description": "Adult male gerbils (70 to 80 g body weight, Charles River Laboratories, Wilmington, Mass.) were anesthetized by i.p. injections of sodium pentobarbital (Nembutal) 40 mg/kg, and additional i.p. injections of 10 mg/kg when necessary to maintain a surgical plane of anesthesia. Animals were placed on a thermostatically controlled heating blanket to maintain body temperature at 37° C. The ventral surface of the neck was exposed, the fur shaved, and the skin cleaned with 2% iodine solution.\nAfter the pre-surgical preparation, a midline incision was made, and the skin opened. The sternohyoid muscles were divided to exposed and isolate the common carotid arteries (CCA) for clamping. Sterilized aneurysm clips (blade with 0.15 mm, closing force ^˜10 gm) was secured by means of a sterilized clip applier on both left and right CCA for 5 minutes. The clamps were then removed and the patency of the arteries checked visually. The wound in the neck was closed by surgical suture. […]\nOn the fifth day of survival; the gerbils were sacrificed in a CO2 chamber. […] After staining with Cresyl violet, the sections were viewed under a microscope at 40× magnification for cell counter quantification of the intact hippocampal neurons along the dorsal CA1 regions (0.5 mm in length) of both hemispheres. Data were analyzed by Student t-Test and the Wilcoxon ranking test."}, "[4]": {"system": "BALB/c mice", "experiment": "LPS/galactosamine liver damage and sepsis model, survival", "assay_type": "in vivo, mouse", "settings": "for survival of mice: FIG. 5, mFLINT 200 μg i.v.", "description": "Specifically, the activity of the polypeptides of the present invention against acute inflammation and apoptosis was determined using the following procedure. Briefly, BALB/c mice (Harlan) per each experimental group were given intravenous injections (the lateral tail vein) of 6 mg of D(+)-Galactosamine (Sigma, 39F-0539) in 100 μl of PBS (GIBCO-BRL) and 3 μg of Lipopolysaccharide B E. coli 026:B6 (LPS) (Difco, 3920-25-2) in 100 μl of PBS. The LPS was administered, via i.v. injection, 5 minutes after the galactosamine, which was administered i.v. […] C. F. et al J. Immunol. 1989. 142: 3884), and Anti-mouse Fas Ligand (500 μg, PharMingen, M024301) at 0, 2, 4, 6 hour-point respectively. The survival rates of the mice were determined 24 and 48 hours after LPS injection."}, "[5]": {"target": "T2, Fas-FasLigand interaction (Homo sapiens, UniProt P48023)", "T2 sequence (P48023 103-281 limits assumed)": "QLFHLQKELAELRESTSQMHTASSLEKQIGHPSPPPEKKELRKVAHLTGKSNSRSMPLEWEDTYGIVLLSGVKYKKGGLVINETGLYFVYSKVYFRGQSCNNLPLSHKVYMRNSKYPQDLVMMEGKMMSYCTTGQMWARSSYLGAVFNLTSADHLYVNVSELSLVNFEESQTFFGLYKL", "experiment": "ELISA: FLINT prevents Fas-FasLigand interaction", "assay_type": "binding", "settings": "hFasLigand 30 ng, mrecFas 100 ng adsorbed", "description": "As above, mrecFas (100 ng) was adsorbed on to ELISA plate. Again the plate was blocked by TBST and 0.1% Gelatine. […] As before, after washing of the plate, anti-mouse-Abs-HRP (3000 dilution, Bio-Rad) was added to the wells. After washings, visualization enzymatic reaction using ABTS as a substrate was performed."}},
  "note": "Entries after “also recorded” stand apart in the source; their conditions may differ.",
  "data": [
    {"molecule": "B1", "values": [
      {"measurement": "binding in dot blot", "setting": "[1]", "value": "No appreciable binding"},
      {"measurement": "% Annexin V Positive", "setting": "[2]; Anti CD3 0", "value": 26.47, "unit": "%"},
      {"measurement": "% Annexin V Positive", "setting": "[2]; Anti CD3 0.11", "value": 33.24, "unit": "%"},
      {"measurement": "% Annexin V Positive", "setting": "[2]; Anti CD3 0.33", "value": 35.89, "unit": "%"},
      {"measurement": "% Annexin V Positive", "setting": "[2]; Anti CD3 1", "value": 34.41, "unit": "%"},
      {"measurement": "neuronal survival (intact hippocampal CA1 neurons)", "setting": "[3]", "value": "significant effect on neuronal survival compared to vehicle; also recorded: indistinguishable from normal controls"},
      {"measurement": "survival of mice", "setting": "[4]; administered 2 hours before LPS/GalN", "value": 100, "unit": "%"},
      {"measurement": "survival of mice", "setting": "[4]; administered 4 hours after LPS/GalN, survival at 48 hours", "value": 80, "unit": "%"},
      {"measurement": "animals survived to 48 hours", "setting": "[4]; FIG. 6, 50 ug mFLINT", "value": "about 70%"},
      {"measurement": "animals alive 48 hours after LPS/GalN", "setting": "[4]; FIG. 6, 400 ug i.p., 2 hours before LPS/GalN challenge", "value": 100, "unit": "%"},
      {"measurement": "survival", "setting": "[4]; FIG. 7, 1 ug iv, 4-hour post-LPS/GalN", "value": "about 2%"},
      {"measurement": "survival", "setting": "[4]; FIG. 7, 5 ug iv, 4-hour post-LPS/GalN", "value": 20, "unit": "%"},
      {"measurement": "survival", "setting": "[4]; FIG. 7, 10 ug iv, 4-hour post-LPS/GalN", "value": 40, "unit": "%"},
      {"measurement": "survival", "setting": "[4]; FIG. 7, 50 ug iv, 4-hour post-LPS/GalN", "value": 80, "unit": "%"},
      {"measurement": "survival", "setting": "[4]; FIG. 7, 100 μg mFLINT IP, 4 hours after LPS/GalN", "value": 80, "unit": "%"},
      {"measurement": "survival", "setting": "[4]; FIG. 7, 100 μg mFLINT iv, 4 hours after LPS/GalN", "value": 100, "unit": "%"},
      {"measurement": "effect on survival, ip compared with iv", "setting": "[4]; FIG. 7, 100 μg mFLINT, 12 or 2 hours before LPS/GalN", "value": "the same"},
      {"measurement": "animals survived", "setting": "[4]; IP 200 μg mFLINT, 2 hours post-challenge with 3 μg LPS", "value": 100, "unit": "%"},
      {"measurement": "animals survived", "setting": "[4]; IP 200 μg mFLINT, 6 hours post-challenge with 3 μg LPS", "value": 60, "unit": "%"},
      {"measurement": "animals survived", "setting": "[4]; IP, 4 hours post-challenge with 3 μg LPS (mFLINT 200 μg)", "value": 73, "unit": "%"},
      {"measurement": "OD, 405 nM", "setting": "[5]; FLINT 1 ng", "value": 0.36},
      {"measurement": "OD, 405 nM", "setting": "[5]; FLINT 5 ng", "value": 0.36},
      {"measurement": "OD, 405 nM", "setting": "[5]; FLINT 10 ng", "value": 0.36},
      {"measurement": "OD, 405 nM", "setting": "[5]; FLINT 50 ng", "value": 0.28},
      {"measurement": "OD, 405 nM", "setting": "[5]; FLINT 100 ng", "value": 0.18},
      {"measurement": "OD, 405 nM", "setting": "[5]; FLINT 500 ng", "value": 0.06}
    ]}
  ]
}
